Experiment [1] deals with T1, human CD25 antigen, R&D Systems cat no. 223-2A/CF (human, UniProt P01589 22-213, limits assumed).
T1 construct: Bought protein; also called R&D Systems (~10% dimer)
T1 sequence: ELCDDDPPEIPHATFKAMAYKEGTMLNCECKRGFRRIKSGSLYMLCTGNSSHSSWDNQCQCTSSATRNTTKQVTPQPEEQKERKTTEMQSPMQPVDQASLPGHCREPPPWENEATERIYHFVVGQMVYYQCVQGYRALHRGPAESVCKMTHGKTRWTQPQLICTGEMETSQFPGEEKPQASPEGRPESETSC
The experiment can be described thus: SPR Biacore T200, antibody captured by anti-human Fab, CD25 in solution, Two State Reaction fit; column head 'Binding strength'. In general terms: SPR reads the build-up and loss of mass on a sensor chip optically.
Description: (§1) Binding of CD25 antibodies to human CD25 antigen was investigated by surface plasmon resonance using a BIACORE T200 instrument (GE Healthcare).
(§2) The flow cell was set to 25° C. and the sample compartment to 12° C. The CD25 antibody was captured by injecting a 3 μg/ml solution for 60 sec at a flow rate of 10 μl/min. Association of CD25 antigen was measured by injection of human CD25 solutions for 180 sec at a flow rate of 30 μl/min starting with a concentration of 1000 nM down to 1 nM in 1:10 dilution steps. The dissociation phase was triggered by switching from sample solution injection to running buffer and monitored for up to 600 seconds. The surface was regenerated by washing with two consecutive 1-minute injections of 10mM glycine pH 2.1 (provided by the kit) at a flow rate of 10 μl/min. Bulk refractive index differences were corrected by subtracting the response obtained from an anti-human Fab reference surface; blank injections are also subtracted (=double referencing).
(§3) For calculation of KD and kinetic parameters Biacore provided fitting models were used to obtain optimal curve fitting results. The 1:1 Langmuir fit was used for P1AA5872 and the Two State Kinetic fitting for CD25 from Sino Biologicals and R&D Systems.

For experiment [2], the target named is T2, recombinant human CD25 extracellular protein sequence (rhCD25) (human, UniProt P01589 22-240).
T2 construct: also called human CD25 antigen; target antigen
T2 sequence: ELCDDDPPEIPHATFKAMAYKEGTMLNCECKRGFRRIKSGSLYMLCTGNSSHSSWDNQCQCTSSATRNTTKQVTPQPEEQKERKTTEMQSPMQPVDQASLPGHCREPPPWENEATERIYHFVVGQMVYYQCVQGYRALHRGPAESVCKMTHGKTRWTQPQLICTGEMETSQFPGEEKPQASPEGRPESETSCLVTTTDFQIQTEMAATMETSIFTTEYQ
Description: ForteBio BLI; format not given; lower end of the stated Kd range. (BLI is a label-free optical method that tracks binding on a fibre tip over time.)

In experiment [3] the target is T2, recombinant human CD25 extracellular …. Description: ForteBio BLI; format not given; upper end of the stated Kd range.
Experiment [4] deals with T3, human CD25 expressed on cells (human, UniProt P01589 22-272).
T3 sequence: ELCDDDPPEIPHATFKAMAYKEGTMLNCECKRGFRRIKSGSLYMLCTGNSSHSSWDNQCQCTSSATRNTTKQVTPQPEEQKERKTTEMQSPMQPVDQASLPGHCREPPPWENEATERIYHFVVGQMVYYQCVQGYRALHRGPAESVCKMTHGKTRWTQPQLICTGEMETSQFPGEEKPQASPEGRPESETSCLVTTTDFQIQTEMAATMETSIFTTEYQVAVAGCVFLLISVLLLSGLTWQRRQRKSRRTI
Description: flow cytometry on CD3/CD28 bead activated human Pan T cells, gated on CD8+ T cells. For orientation: A flow cytometer gives signals particle by particle.
Description: (§4) Binding to CD25 expressing activated human and Cynomolgus monkey PMBC was examined by staining test articles (anti-CD25 primary antibodies) with 20 μg/ml antibodies followed by semi-log dilution series (7-point) for 30 minutes on ice. This was followed by staining with a secondary antibody (rabbit anti-human Fcg F(ab′)2- (Jackson ImmunoResearch)) concentration of 5 μg/ml for 30 minutes on ice. All samples were stained in triplicates. To minimize cross-linking induced cell death mediated by binding of the secondary antibody, cell lines were examined in staining cohorts of 4 test articles at a time. Live lymphocytes were gated using FSC vs SSC parameters by flow cytometry during sample acquisition. Mean fluorescence intensity (MFI) of gated CD4⁺ and CD8⁺ T cell subsets were plotted on an XY chart, graphing MFI against the log of the concentration, and the data fit to a non-linear regression curve from which the EC50 was calculated.

Experiment [5] concerns the target T3, human CD25 expressed on cells. The experiment can be described thus: flow cytometry on human in vitro differentiated Treg cells, Alexa Fluor 647 anti-human IgG secondary.
Description: Binding to CD25 expressing in vitro differentiated Tregs was examined by staining test articles (anti-CD25 primary antibodies) with 30 μg/ml antibodies followed by semi-log dilution series (7-point) for 30 minutes on ice. […] All samples were stained in duplicates. Live cells were gated using FSC vs SSC parameters by flow cytometry during sample acquisition. Mean fluorescence intensity (MFI) of stained cells were plotted on an XY chart, graphing MFI against the log of the concentration, and the data fit to a non-linear regression curve from which the EC50 is calculated.
For experiment [6], the target named is T4, human CD25 antigen, Sino Biologicals cat no. 10165-H08H (human, UniProt P01589 22-213).
T4 construct: Bought protein; also called Sino biological (~20% dimer)
T4 sequence: T1 sequence
The experiment can be described thus: SPR Biacore T200, antibody captured by anti-human Fab, CD25 in solution, Two State Reaction fit; column head 'Binding strength'; Sino Biologicals CD25, ~20% dimer; Two State Reaction fit.
Description: as §1, §2, §3

For experiment [7], the target named is T5, inhouse produced monomeric CD25 antigen (P1AA5872) (human, UniProt P01589 22-240, limits assumed).
T5 construct: also called Inhouse (0% dimer)
T5 sequence: T2 sequence
Description: SPR Biacore T200, antibody captured by anti-human Fab, monomeric CD25 in solution, 1:1 Langmuir fit; column head 'Binding strength'.
Description: as §1, §2, §3

In experiment [8] the target is T6, recombinant human CD25 his tagged (human, UniProt P01589 22-240, limits assumed).
T6 construct: Loaded on Ni-NTA sensors at 20.83 nM; also called rhCD25-his; not shown: His tag
T6 sequence: T2 sequence
Description: ForteBio BLI, avidity format: rhCD25-His on Ni-NTA sensor, IgG in solution, 1:1 fit.

Experiment [9] concerns the target T3, human CD25 expressed on cells. The experiment can be described thus: flow cytometry on CD3/CD28 bead activated human Pan T cells, gated on CD4+ T cells.
Description: as §4

From patent publication US20210009704A1 (TUSK THERAPEUTICS, published 2021) come the findings set out here.

B1: aCD25-a-674 (antibody, V domains shown)
VH: QVQLVQSGAEVKKPGASVKVSCKASGYTFTSYYMHWVRQAPGQGLEWMGIINPSGGSTSYAQKFQGRVTMTRDTSTSTVYMELSSLRSEDTAVYYCARGGAEYIPAEYFQHWGQGTLVTVSS
VL: EIVMTQSPATLSLSPGERATLSCRASQSVSSYLAWYQQKPGQAPRLLIYDASNRATGIPARFSGSGSGTDFTLTISSLEPEDFAVYYCQQRPFLPTFGGGTKVEIK
notes: not shown: human IgG1 heavy chain constant region, P01857; human kappa light chain constant region, P01834
Consider B1, for which the Kd is 48 nM in [1]; at least 0.1 nM in experiment [2]; at most 10 nM in experiment [3]; 40 nM in [6]; 517 nM in experiment [7]; 2.12 nM in [8]. Also, the “EC50 (read off the curve)” value in experiment [4] was about 1 µg/mL; in experiment [5], about 2 µg/mL; in experiment [9] it was about 0.9 µg/mL.

As a reminder, the EC50 (read off the curve) is the concentration at which the effect is half-maximal. A low value points to greater potency.
